Assay results reported in patent publication US20250082753A1 (Hoffmann-La Roche, published 2025).

Target: T1, CH2-CH3 AAA P329R CAR
T1 construct: Expressed on transduced primary human T cells (CD4+:CD8+ 1:1); also called CH2 CH3 AAA PR CAR
Test: flow cytometry double staining of CH2-CH3 AAA P329R CAR T cells with 50 nM anti-PG VH3xVL1 huIgG-AF647 and 100 nM anti-AAA x FolR1 1+1 TCB Avi Biotin + BV421 streptavidin
Experimental: In order to assess if the P329G mutation and AAA mutations can be bound by the respective molecules simultaneously, a second staining was performed as follows (FIG. 12A). The cells were incubated with LIVE/DEAD™ Fixable Near-IR Dead (Invitrogen, #L34976) dye (1:1000 in DPBS) and 50 nM of anti-PG VH3×VL1 huIgG-AF647 for 20 minutes at 4° C.
Then the cells were washed twice with FACS-buffer. In a second step the cells were incubated with 100 nM of anti-AAA×FolR1-Avi-Biotin 1+1 TCB and 500 nM Fc_P329LALA (20 minutes at 4° C.). Fc_P329GLALA served as blocking molecule, to prevent binding of the anti-PG VH3×VL1 huIgG-AF647 to the PG mutation in the anti-AAA×FolR1-Avi-Biotin 1+1 TCB. After the incubation, the cells were washed twice with FACS-buffer. In a third step the cells were resuspended in BV421 Streptavidin (Biolegend, #405225) and 500 nM Fc_P329LALA (20 min, 4° C.). After another two washing steps, the cells were fixed (BD CytoFix, #554655) and analyzed on the FACS.

T1 sequence (chain, as listed by the source P329R P329R limits assumed): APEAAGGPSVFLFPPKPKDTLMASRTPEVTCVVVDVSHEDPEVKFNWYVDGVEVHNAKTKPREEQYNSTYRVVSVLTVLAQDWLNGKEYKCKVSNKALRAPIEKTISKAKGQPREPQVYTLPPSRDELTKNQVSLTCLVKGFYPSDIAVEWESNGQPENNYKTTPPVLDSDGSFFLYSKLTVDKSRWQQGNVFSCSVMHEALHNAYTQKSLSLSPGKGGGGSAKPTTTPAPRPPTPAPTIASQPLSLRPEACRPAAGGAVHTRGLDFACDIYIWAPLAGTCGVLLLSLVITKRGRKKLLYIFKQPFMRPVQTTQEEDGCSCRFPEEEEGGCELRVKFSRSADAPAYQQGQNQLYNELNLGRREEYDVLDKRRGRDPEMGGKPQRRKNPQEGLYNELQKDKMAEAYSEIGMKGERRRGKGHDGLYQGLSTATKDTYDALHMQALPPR

B1: Anti-P329G (VH3VL1) huIgG1 (antibody, V domains shown)
VH: EVQLVESGGGLVQPGGSLRLSCAASGFTFSRYWMNWVRQAPGKGLEWVGEITPDSSTINYAPSLKGRFTISRDNAKNSLYLQMNSLRAEDTAVYYCARPYDYGAWFASWGQGTLVTVSS
VL: QAVVTQEPSLTVSPGGTVTLTCRSSTGAVTTSNYANWVQEKPDHLFTGLIGGTNKRAPGTPARFSGSLLGGKAALTLSGAQPEDEAEYYCALWYSNHWVFGGGTKLTVL
notes: huIgG1; also called P1AE9957; anti-P329G VH3×VL1 AF647 labeled IgG
Question: Does B1 bind?
Answer: Result: no binding (tested: 50 nM)
